Test system: SCD
Experiment: SCD enzyme activity in heart microsomes of leptin-treated ob/ob mice
Format: in vivo, mouse
Details: leptin 12 days, [1-14C]stearoyl-CoA substrate, elevated 3-fold in untreated ob/ob
Procedure: A, SCD activity: Microsomes were prepared from hearts of PBS-treated, ob/ob, ob/ob pair-fed (PF), and leptin-treated (ob/ob-Leptin) mice, and SCD enzyme activity was determined by measuring the incorporation of radioactivity in oleoyl-CoA using [1-^14C]stearoyl-CoA as a substrate. The reaction products were separated by TLC, and the radioactivity was quantitated. Each value represents the mean±S.E. (n=4). B, Levels of monounsaturated fatty acids in the hearts of ob/ob mice: Total fatty acids were extracted from heart of ob/ob mice treated with either leptin or PBS and wild type controls quantitated by GLC as described in the example below. *, p<0.05 versus wt-PBS; #,p<0.05 versus ob/ob-PBS. C, Total RNA was prepared from hearts of PBS or leptin-treated ob/ob mice and used to measure SCD1, SCD2, and SCD4 mRNA levels by quantitative RT-PCR analysis. The fold change relative to that of wild type was calculated after correction for the levels of cyclophilin used as a standard. Each value represents the mean±S.E. (n=4).
Subcutaneous Leptin Treatment—ob/ob mice were individually caged and allowed to acclimate for a number of days prior to the start of the experiment. […] Body mass and food intake were measured daily. […]

B1: leptin: recombinant mouse leptin (Amgen, Thousand Oaks, Calif.) (protein, UniProt P41160 22-167, looked up)
Leptin: VPIQKVQDDTKTLIKTIVTRINDISHTQSVSAKQRVTGLDFIPGLHPILSLSKMDQTLAVYQQVLTSLPSQNVLQIANDLENLRDLLHLLAFSKSCSLPQTSGLQKPESLDGVLEASLYSTEVVALSRLQGSLQDILQQLDVSPEC
SCD activity in heart: completely normalized to wild type levels

Reference: patent publication US7285395B2, “Stearoyl-CoA desaturase 4 gene” (Wisconsin Alumni Research Foundation, priority 2004, dated 2007)
